Laboratory results from patent US20120034160A1 (AbbVie / Abbott, published 2012).

T1: Recombinant Human IL-17 (human, UniProt Q16552 20-155, limits assumed)
T1 sequence (looked up): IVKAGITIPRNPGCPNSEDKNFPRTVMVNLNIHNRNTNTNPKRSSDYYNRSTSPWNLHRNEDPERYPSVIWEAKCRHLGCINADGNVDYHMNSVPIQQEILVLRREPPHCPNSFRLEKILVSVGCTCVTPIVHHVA


Key:
Recombinant Human IL-17 = target: T1, Recombinant Human IL-17; assay: cell-based or functional assay
Recombinant Human IL-1β = Recombinant Human IL-1β (human, UniProt P01584 117-269); assay: cell-based or functional assay

Binder | C-terminal VD IL-17 Neutralization Assay EC50 (Recombinant Human IL-17) | N-Terminal VD IL-1β Neutralization Assay EC50 (Recombinant Human IL-1β) | N-terminal VD IL-17 Neutralization Assay EC50 (Recombinant Human IL-17) | C-Terminal VD IL-1β Neutralization Assay EC50 (Recombinant Human IL-1β)
DVD1289 (bispecific antibody, human IgG1, kappa) heavy: not shown light: EIVLTQSPDFQSVTPKEKVTITCRASQNIGSELHWYQQKPDQSPKLLIKYASHSISGVPSRFSGSGSGTDFTLTINGLEAEDAATYYCHQSDTLPHTFGQGTKVDIKRTVAAPDTVVTQSPAFLSVTPGEKVTITCITSTDIDVDMNWYQQKPDQPPKLLISQGNTLRPGVPSRFSSSGSGTDFTFTISSLEAEDAATYYCLQSDNLPLTFGQGTKLEIKRTVAAPSVFIFPPSDEQLKSGTASVVCLLNNFYPREAKVQWKVDNALQSGNSQESVTEQDSKDSTYSLSSTLTLSKADYEKHKVYACEVTHQGLSSPVTKSFNRGEC | – | – | 0.096 nM | 18.8 nM
DVD1287 (bispecific antibody, human IgG1, kappa) heavy: not shown light: EIVLTQSPDFQSVTPKEKVTITCRASQNIGSELHWYQQKPDQSPKLLIKYASHSISGVPSRFSGSGSGTDFTLTINGLEAEDAATYYCHQSDTLPHTFGQGTKVDIKRTVAAPDTQVTQSPSSLSASVGDRVTITCITSTDIDVDMNWYQQKPGKPPKLLISQGNTLRPGVPSRFSSSGSGTDFTFTISSLQPEDFATYYCLQSDNLPLTFGQGTKLEIKRTVAAPSVFIFPPSDEQLKSGTASVVCLLNNFYPREAKVQWKVDNALQSGNSQESVTEQDSKDSTYSLSSTLTLSKADYEKHKVYACEVTHQGLSSPVTKSFNRGEC | – | – | 0.0035 nM | > 50 nM
DVD1291 (bispecific antibody, human IgG1, kappa) heavy: not shown light: EIVLTQSPDFQSVTPKEKVTITCRASQNIGSELHWYQQKPDQSPKLLIKYASHSISGVPSRFSGSGSGTDFTLTINGLEAEDAATYYCHQSDTLPHTFGQGTKVDIKRTVAAPETTVTQSPSSLSASVGDRVTITCITSTDIDVDMNWYQQKPGKPPKLLISQGNTLRPGVPSRFSSSGSGTDFTFTISSLQPEDFATYYCLQSDNLPLTFGQGTKLEIKRTVAAPSVFIFPPSDEQLKSGTASVVCLLNNFYPREAKVQWKVDNALQSGNSQESVTEQDSKDSTYSLSSTLTLSKADYEKHKVYACEVTHQGLSSPVTKSFNRGEC | – | – | 0.0062 nM | > 100 nM
DVD1288 (bispecific antibody, human IgG1, kappa) heavy: not shown light: DTVVTQSPAFLSVTPGEKVTITCITSTDIDVDMNWYQQKPDQPPKLLISQGNTLRPGVPSRFSSSGSGTDFTFTISSLEAEDAATYYCLQSDNLPLTFGQGTKLEIKRTVAAPEIVLTQSPDFQSVTPKEKVTITCRASQNIGSELHWYQQKPDQSPKLLIKYASHSISGVPSRFSGSGSGTDFTLTINGLEAEDAATYYCHQSDTLPHTFGQGTKVDIKRTVAAPSVFIFPPSDEQLKSGTASVVCLLNNFYPREAKVQWKVDNALQSGNSQESVTEQDSKDSTYSLSSTLTLSKADYEKHKVYACEVTHQGLSSPVTKSFNRGEC | 0.111 nM | 0.212 nM | – | –
DVD1286 (bispecific antibody, human IgG1, kappa) heavy: not shown light: DTQVTQSPSSLSASVGDRVTITCITSTDIDVDMNWYQQKPGKPPKLLISQGNTLRPGVPSRFSSSGSGTDFTFTISSLQPEDFATYYCLQSDNLPLTFGQGTKLEIKRTVAAPEIVLTQSPDFQSVTPKEKVTITCRASQNIGSELHWYQQKPDQSPKLLIKYASHSISGVPSRFSGSGSGTDFTLTINGLEAEDAATYYCHQSDTLPHTFGQGTKVDIKRTVAAPSVFIFPPSDEQLKSGTASVVCLLNNFYPREAKVQWKVDNALQSGNSQESVTEQDSKDSTYSLSSTLTLSKADYEKHKVYACEVTHQGLSSPVTKSFNRGEC | 0.259 nM | 0.165 nM | – | –
DVD1290 (bispecific antibody, human IgG1, kappa) heavy: not shown light: ETTVTQSPSSLSASVGDRVTITCITSTDIDVDMNWYQQKPGKPPKLLISQGNTLRPGVPSRFSSSGSGTDFTFTISSLQPEDFATYYCLQSDNLPLTFGQGTKLEIKRTVAAPEIVLTQSPDFQSVTPKEKVTITCRASQNIGSELHWYQQKPDQSPKLLIKYASHSISGVPSRFSGSGSGTDFTLTINGLEAEDAATYYCHQSDTLPHTFGQGTKVDIKRTVAAPSVFIFPPSDEQLKSGTASVVCLLNNFYPREAKVQWKVDNALQSGNSQESVTEQDSKDSTYSLSSTLTLSKADYEKHKVYACEVTHQGLSSPVTKSFNRGEC | 0.0181 nM | 0.252 nM | – | –
DVD1589 (bispecific antibody, human IgG1, kappa) heavy: not shown light: DIQMTQSPSSLSASVGDRVTITCRASGNIHNYLTWYQQTPGKAPKLLIYNAKTLADGVPSRFSGSGSGTDYTFTISSLQPEDIATYYCQHFWSIPYTFGQGTKLQITRTVAAPSVFIFPPDIQMTQSPSSLSASVGDRVTITCRASSGIISYIDWFQQKPGKAPKRLIYATFDLASGVPSRFSGSGSGTDYTLTISSLQPEDFATYYCRQVGSYPETFGQGTKLEIKRTVAAPSVFIFPPSDEQLKSGTASVVCLLNNFYPREAKVQWKVDNALQSGNSQESVTEQDSKDSTYSLSSTLTLSKADYEKHKVYACEVTHQGLSSPVTKSFNRGEC | 0.0011 nM | 0.0068 nM | – | –

The next lines start with the values.

C-terminal VD IL-17 Neutralization Assay EC50 (Recombinant Human IL-17) | N-Terminal VD IL-1β Neutralization Assay EC50 (Recombinant Human IL-1β) | N-terminal VD IL-17 Neutralization Assay EC50 (Recombinant Human IL-17) | C-Terminal VD IL-1β Neutralization Assay EC50 (Recombinant Human IL-1β) | Binder
0.001 nM | 0.184 nM | – | – | DVD1593 (bispecific antibody, human IgG1, kappa) heavy: not shown light: DTQVTQSPSSLSASVGDRVTITCITSTDIDVDMNWYQQKPGKPPKLLISQGNTLRPGVPSRFSSSGSGTDFTFTISSLQPEDFATYYCLQSDNLPLTFGQGTKLEIKRTVAAPSVFIFPPDIQMTQSPSSLSASVGDRVTITCRASSGIISYIDWFQQKPGKAPKRLIYATFDLASGVPSRFSGSGSGTDYTLTISSLQPEDFATYYCRQVGSYPETFGQGTKLEIKRTVAAPSVFIFPPSDEQLKSGTASVVCLLNNFYPREAKVQWKVDNALQSGNSQESVTEQDSKDSTYSLSSTLTLSKADYEKHKVYACEVTHQGLSSPVTKSFNRGEC
– | – | 0.0007 nM | 3.44 nM | DVD1596 (bispecific antibody, human IgG1, kappa) heavy: not shown light: DIQMTQSPSSLSASVGDRVTITCRASSGIISYIDWFQQKPGKAPKRLIYATFDLASGVPSRFSGSGSGTDYTLTISSLQPEDFATYYCRQVGSYPETFGQGTKLEIKRTVAAPSVFIFPPDTVVTQSPAFLSVTPGEKVTITCITSTDIDVDMNWYQQKPDQPPKLLISQGNTLRPGVPSRFSSSGSGTDFTFTISSLEAEDAATYYCLQSDNLPLTFGQGTKLEIKRTVAAPSVFIFPPSDEQLKSGTASVVCLLNNFYPREAKVQWKVDNALQSGNSQESVTEQDSKDSTYSLSSTLTLSKADYEKHKVYACEVTHQGLSSPVTKSFNRGEC
0.0393 nM | 0.0023 nM | – | – | DVD1591 (bispecific antibody, human IgG1, kappa) heavy: not shown light: DIQMTQSPSSLSASVGDRVTITCRASGNIHNYLTWYQQTPGKAPKLLIYNAKTLADGVPSRFSGSGSGTDYTFTISSLQPEDIATYYCQHFWSIPYTFGQGTKLQITRTVAAPSVFIFPPDIQMTQSPSSLSASVGDRVTITCRASSGIISYIDWFQQKPGKAPKRLIYATFDLASGVPSRFSGSGSGTDYTLTISSLQPEDFATYYCRQVGSYPETFGQGTKLEIKRTVAAPSVFIFPPSDEQLKSGTASVVCLLNNFYPREAKVQWKVDNALQSGNSQESVTEQDSKDSTYSLSSTLTLSKADYEKHKVYACEVTHQGLSSPVTKSFNRGEC
0.0019 nM | 0.204 nM | – | – | DVD1595 (bispecific antibody, human IgG1, kappa) heavy: not shown light: DTVVTQSPAFLSVTPGEKVTITCITSTDIDVDMNWYQQKPDQPPKLLISQGNTLRPGVPSRFSSSGSGTDFTFTISSLEAEDAATYYCLQSDNLPLTFGQGTKLEIKRTVAAPSVFIFPPDIQMTQSPSSLSASVGDRVTITCRASSGIISYIDWFQQKPGKAPKRLIYATFDLASGVPSRFSGSGSGTDYTLTISSLQPEDFATYYCRQVGSYPETFGQGTKLEIKRTVAAPSVFIFPPSDEQLKSGTASVVCLLNNFYPREAKVQWKVDNALQSGNSQESVTEQDSKDSTYSLSSTLTLSKADYEKHKVYACEVTHQGLSSPVTKSFNRGEC
– | – | 0.0016 nM | 1.6 nM | DVD1590 (bispecific antibody, human IgG1, kappa) heavy: not shown light: DIQMTQSPSSLSASVGDRVTITCRASSGIISYIDWFQQKPGKAPKRLIYATFDLASGVPSRFSGSGSGTDYTLTISSLQPEDFATYYCRQVGSYPETFGQGTKLEIKRTVAAPSVFIFPPDIQMTQSPSSLSASVGDRVTITCRASGNIHNYLTWYQQTPGKAPKLLIYNAKTLADGVPSRFSGSGSGTDYTFTISSLQPEDIATYYCQHFWSIPYTFGQGTKLQITRTVAAPSVFIFPPSDEQLKSGTASVVCLLNNFYPREAKVQWKVDNALQSGNSQESVTEQDSKDSTYSLSSTLTLSKADYEKHKVYACEVTHQGLSSPVTKSFNRGEC
– | – | 0.0117 nM | 0.109 nM | DVD1592 (bispecific antibody, human IgG1, kappa) heavy: not shown light: DIQMTQSPSSLSASVGDRVTITCRASSGIISYIDWFQQKPGKAPKRLIYATFDLASGVPSRFSGSGSGTDYTLTISSLQPEDFATYYCRQVGSYPETFGQGTKLEIKRTVAAPSVFIFPPDIQMTQSPSSLSASVGDRVTITCRASGNIHNYLTWYQQTPGKAPKLLIYNAKTLADGVPSRFSGSGSGTDYTFTISSLQPEDIATYYCQHFWSIPYTFGQGTKLQITRTVAAPSVFIFPPSDEQLKSGTASVVCLLNNFYPREAKVQWKVDNALQSGNSQESVTEQDSKDSTYSLSSTLTLSKADYEKHKVYACEVTHQGLSSPVTKSFNRGEC
– | – | 0.0025 nM | 9.1 nM | DVD1594 (bispecific antibody, human IgG1, kappa) heavy: not shown light: DIQMTQSPSSLSASVGDRVTITCRASSGIISYIDWFQQKPGKAPKRLIYATFDLASGVPSRFSGSGSGTDYTLTISSLQPEDFATYYCRQVGSYPETFGQGTKLEIKRTVAAPSVFIFPPDTQVTQSPSSLSASVGDRVTITCITSTDIDVDMNWYQQKPGKPPKLLISQGNTLRPGVPSRFSSSGSGTDFTFTISSLQPEDFATYYCLQSDNLPLTFGQGTKLEIKRTVAAPSVFIFPPSDEQLKSGTASVVCLLNNFYPREAKVQWKVDNALQSGNSQESVTEQDSKDSTYSLSSTLTLSKADYEKHKVYACEVTHQGLSSPVTKSFNRGEC
